The source of these data is PMC9911985 (Journal of Molecular Biology, 2023).

This data set deals with the molecule itself. The data set is described as follows: SEC. A general note: Size exclusion chromatography separates by hydrodynamic size, large species first.

Where no end group is shown, it is not given here. MBP = not defined here

B1: 6xHis-MBP-selenos 40–59 (domain or fragment)
chain: {6xHis-MBP}-SCILLYVVFQKLSARLRALR
modifications: reading uncertain
B1: the binding result is given as “binds”.
